Assay results published in patent US20210340273A1 (INHLBRX, published 2021).
One block for each binder: values may come before it.

Tests used:
[1] = target: T1, human 5T4 (trophoblast glycoprotein), endogenous on the cell surface (human, UniProt Q13641 32-420); experiment: flow cytometry (FL4), sdAb-Fc titrated on HEK-293 freestyle (293FS) cells endogenously expressing 5T4
T1 construct: also called TPBG; 5T4 oncofetal antigen
T1 sequence: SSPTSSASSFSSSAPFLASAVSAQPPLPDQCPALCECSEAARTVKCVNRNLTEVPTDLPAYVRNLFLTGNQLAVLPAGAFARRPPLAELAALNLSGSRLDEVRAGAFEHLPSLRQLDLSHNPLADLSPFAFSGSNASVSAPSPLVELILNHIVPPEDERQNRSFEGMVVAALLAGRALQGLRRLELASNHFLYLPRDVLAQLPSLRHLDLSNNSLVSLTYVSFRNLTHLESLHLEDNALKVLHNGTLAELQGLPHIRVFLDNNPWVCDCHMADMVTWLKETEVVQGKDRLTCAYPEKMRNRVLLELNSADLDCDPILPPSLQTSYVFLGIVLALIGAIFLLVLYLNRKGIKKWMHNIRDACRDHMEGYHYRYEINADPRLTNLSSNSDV
Experimental: FIGS. 1A-B depict the ability of various single domain antibodies targeting 5T4 to bind cell surface 5T4. Binding was assessed by flow cytometry on HEK-293 freestyle cells endogenously expressing 5T4.
(§1) Specificity and relative affinity were assessed for purified sdAb-Fcs on 5T4-expressing cells. Binding of 5T4-sdAb-Fc fusion proteins was assessed by flow cytometry using 5T4-expressing cells. A titration series of the fusion protein was incubated with the 5T4-expressing cell lines (approximately 2.5×10⁴ to 5×10⁴ cells/well) for 30 minutes at 4 degrees Celsius in FACS Buffer (PBS 1% BSA, 0.1% NaN₃ pH 7.4) in 96 well plates. Following three wash steps in FACS buffer, an APC-conjugated anti-human Fcγ specific secondary antibody (Jackson ImmunoResearch) was added and incubated for 30 minutes at 4 degrees Celsius. Following three additional wash steps in FACS buffer bound antibody was detected via flow cytometry (IQue Intellicyte).

[2] = target: T1, human 5T4 (trophoblast glycoprotein), …; experiment: flow cytometry (FL4H median), sdAb-Fc titrated on 5T4-positive T47D cells
Experimental: as §1
(§2) Humanized variant of the 5T4 sdAbs were tested for their ability to bind 5T4 expressing cells substantially as described in Example 2, and binding was compared to the parental sdAb. 5T4 expressing T47D cells were used in these studies. Results are shown in FIGS. 2A-2F, which confirm binding of the humanized variants. In some cases, binding was increased compared to the parental sdAb.

[3] = target: T1, human 5T4 (trophoblast glycoprotein), …; experiment: as above; remark: listed apart in the source
Experimental: as §1, §2

[4] = target: T1, human 5T4 (trophoblast glycoprotein), …; experiment: flow cytometry, sdAb-Fc on 5T4 expressing T47D cells
[5] = target: T1, human 5T4 (trophoblast glycoprotein), …; experiment: flow cytometry (FL4H median), sdAb-Fc titrated on 5T4-positive T47D cells; remark: listed apart in the source
Experimental: as §1, §2

EC50 (read off the curve) [1]: ~0.5 nM
EC50 (read off the curve) [2]: ~0.4 nM
EC50 (read off the curve) [3]: ~0.8 nM
B1: 14B5 sdAb-Fc (Fc fusion, not shown: a dimerising Fc or GST)
chain: QVQLVQSGGGLVQAGDSLTLSCAVSERPFGTYAMGWFRQAPGRERDLVAAVSRNGGASQYGDSVKGRFSISRDNIKNTMYLQMNSLKPEDTAVYYCAARSAAYSRSSEVYTGKDEYYYWGQGTQVTVKP
notes: Camelid derived sdAb tested as sdAb-Fc; also called L14B5

binding result [4]: binds
B2: hz14B5v2 sdAb-Fc (Fc fusion)
chain: EVQLVESGGGEVQPGGSLRLSCAASERPFGTYAMGWFRQAPGKERDLVAAVSRNGGASQYAESVKGRFTISRDNAKNTLYLQMSSLRAEDTAVYYCAARSAAYSRSSEVYTGKDEYYYWGQGTLVTVKP
notes: Humanized variant of 14B5, linked to a human Fc; not shown: human Fc

EC50 (read off the curve) [3]: ~2 nM
B3: hz14B5v15 sdAb-Fc (Fc fusion)
chain: EVQLVESGGGEVQPGGSLRLSCAASERPFGTYAMGWFRQAPGKERDLVAAVSRNAGASYYAESVKGRFTISRDNAKNTMYLQMSSLRAEDTAVYYCAARSAAYSRSSEVYTGKDEYYYWGQGTLVTVKP
notes: as for B2

binding result [4]: binds
B4: hz14B5v18 sdAb-Fc (Fc fusion)
chain: EVQLVESGGGEVQPGGSLRLSCAASERPFSSYAMGWFRQAPGKERDLVAAVSRNAGASYYAESVKGRFTISRDNAKNTVYLQMSSLRAEDTAVYYCAARSAAYSRSSEVYTGKDEYYYWGQGTLVTVKP
notes: as for B2

EC50 (read off the curve) [3]: ~2 nM
B5: hz14B5v13 sdAb-Fc (Fc fusion)
chain: EVQLVESGGGEVQPGGSLRLSCAASERPFGTYAMGWFRQAPGKERETVAAVSRNAGASQYAESVKGRFTISRDNAKNTMYLQMSSLRAEDTAVYYCAARSAAYSRSSEVYTGKDEYYYWGQGTLVTVKP
notes: as for B2

binding result [4]: binds
B6: hz14B5v19 sdAb-Fc (Fc fusion)
chain: EVQLVESGGGEVQPGGSLRLSCAASGRPFGTYAMGWFRQAPGKERDLVAAVSRNAGASYYAESVKGRFTISRDNAKNTVYLQMSSLRAEDTAVYYCAARSAAYSRSSEVYTGKDEYYYWGQGTLVTVKP
notes: as for B2

EC50 (read off the curve) [3]: ~2 nM
B7: hz14B5v14 sdAb-Fc (Fc fusion)
chain: EVQLVESGGGEVQPGGSLRLSCAASERPFGTYAMGWFRQAPGKEREFVAAVSRNAGASQYAESVKGRFTISRDNAKNTMYLQMSSLRAEDTAVYYCAARSAAYSRSSEVYTGKDEYYYWGQGTLVTVKP
notes: as for B2

EC50 (read off the curve) [3]: ~2 nM
B8: hz14B5v16 sdAb-Fc (Fc fusion)
chain: EVQLVESGGGEVQPGGSLRLSCAASERPFGTYAMGWFRQAPGKERDLVAAVSRNAGASQYGEFVKGRFTISRDNAKNTMYLQMSSLRAEDTAVYYCAARSAAYSRSSEVYTGKDEYYYWGQGTLVTVKP
notes: as for B2

EC50 (read off the curve) [3]: ~2 nM
B9: hz14B5v11 sdAb-Fc (Fc fusion)
chain: EVQLVESGGGEVQAGDSLTLSCAVSERPFGTYAMGWFRQAPGRERDLVAAVSRNAGASQYAESVKGRFTISRDNAKNTMYLQMSSLRAEDTAVYYCAARSAAYSRSSEVYTGKDEYYYWGQGTLVTVKP
notes: Humanized variant of 14B5, linked to a human Fc; also called hz14B511; not shown: human Fc

binding result [4]: binds
B10: hz14B5v20 sdAb-Fc (Fc fusion)
chain: EVQLVESGGGEVQPGGSLRLSCAASGRPFSSYAMGWFRQAPGKERDLVAAVSRNAGASYYAESVKGRFTISRDNAKNTVYLQMSSLRAEDTAVYYCAARSAAYSRSSEVYTGKDEYYYWGQGTLVTVKP
notes: as for B2

EC50 (read off the curve) [3]: ~2 nM
B11: hz14B5v12 sdAb-Fc (Fc fusion)
chain: EVQLVESGGGEVQPGGSLRLSCAASERPFGTYAMGWFRQAPGKERDLVAAVSRNAGASQYGESVKGRFSISRDNIKNTMYLQMSSLKPEDTAVYYCAARSAAYSRSSEVYTGKDEYYYWGQGTLVTVKP
notes: as for B2

EC50 (read off the curve) [1]: ~1 nM
B12: 14F4 sdAb-Fc (Fc fusion, not shown: a dimerising Fc or GST)
chain: QVQLQESGGGLMQAGDSLRLSCVVSGVTWNSYTMAWFRQAPGKEREFVAAIRWTVDTTYYADFVKGRFTISRDYAKKTMYLQMNNLKPEDAAVYYCAVGRKWPKADDYWGQGTLVTVKP
notes: Camelid derived sdAb tested as sdAb-Fc

EC50 (read off the curve) [1]: ~1 nM
EC50 (read off the curve) [2]: ~0.9 nM
B13: 16G10 sdAb-Fc (Fc fusion, not shown: a dimerising Fc or GST)
chain: QVQLLQSGGGLVQAGGSLILSCAVSGRPFSSSAMGWFRQAPGKERETVAAVSRNGGSSYYADFVKGRFTISRDNDKNTVYLQMNSLKPEDTAVYYCAARSAAYSRSSETYTEKHDYTYWGQGTQVTVKP
notes: Camelid derived sdAb tested as sdAb-Fc; also called L16G10

EC50 (read off the curve) [1]: ~0.2 nM
B14: 7E1 sdAb-Fc (Fc fusion, not shown: a dimerising Fc or GST)
chain: QVQLVQSGGGLVQAGASLRLSCVASGRTRSLRTMAWFRQAPGKERIFVAAISWRSDSTYYADSVKGRFTISRDNAKNTAYLQMNTLKPEDTAVYYCAAGGGWLATTPDEYTYWGQGTLVTVKP
notes: as for B12

EC50 (read off the curve) [1]: ~0.2 nM
B15: 4D3 sdAb-Fc (Fc fusion, not shown: a dimerising Fc or GST)
chain: QVQLQESGGGLVQAGGSLRLSCAASRRPFSSKTMAWFRQTPGKEREFVAAVRWIGGATRYTDSVKGRFSISKDNAINTVYLQTNSLKSEDTAVYYCAAGQTWGTKFTDYSDWGQGTLVTVKP
notes: as for B12

EC50 (read off the curve) [1]: ~0.1 nM
EC50 (read off the curve) [2]: ~0.2 nM
EC50 (read off the curve) [5]: ~0.1 nM
B16: 12E9 sdAb-Fc (Fc fusion, not shown: a dimerising Fc or GST)
chain: QVQLVQSGGGLVQAGGSLRLSCAASRRPFSSKTMAWFRQTPGKEREFVAAVRWIGGATRYTDSVKGRFSISKDNAINTVYLQMNSLKSEDTAVYYCAAGQAWGTKFTDYSDWGQGTQVTVKP
notes: Camelid derived sdAb tested as sdAb-Fc; also called L12E9; 12E9-Fc

EC50 (read off the curve) [5]: ~0.1 nM
B17: hz12E9v5 sdAb-Fc (Fc fusion)
chain: EVQLVESGGGEVQPGGSLRLSCAASRRPFSSKTMAWFRQAPGKEREFVAAVRWIGGATRYTESVKGRFTISRDNAKNTLYLQMSSLRAEDTAVYYCAAGQAWGTKFTDYSDWGQGTLVTVKP
notes: Humanized variant of 12E9, linked to a human Fc; not shown: human Fc

EC50 (read off the curve) [5]: ~0.1 nM
B18: hz12E9v8 sdAb-Fc (Fc fusion)
chain: EVQLVESGGGEVQPGGSLRLSCAASRRPFSSKTMAWFRQAPGKEREFVAAVRWIGGATRYAESVKGRFTISRDNAINTVYLQMNSLKSEDTAVYYCAAGQAWGTKFTDYSDWGQGTLVTVKP
notes: as for B17

EC50 (read off the curve) [5]: ~0.1 nM
B19: hz12E9v7 sdAb-Fc (Fc fusion)
chain: EVQLVESGGGEVQPGGSLRLSCAASRRPFSSKTMAWFRQAPGKEREFVAAVRWIGGATRYTDSVKGRFSISKDNAKNTVYLQMSSLRAEDTAVYYCAAGQAWGTKFTDYSDWGQGTLVTVKP
notes: as for B17

binding result [2]: binds
B20: hz16G10v9 sdAb-Fc (Fc fusion)
chain: EVQLVESGGGEVQPGGSLRLSCAASGRPFSSSAMGWFRQAPGKERETVAAVSRNGGSSYYAESVKGRFTISRDNDKNTVYLQMSSLRAEDTAVYYCAARSAAYSRSSETYTEKHDYTYWGQGTLVTVKP
notes: Humanized variant of 16G10, linked to a human Fc; not shown: human Fc

binding result [4]: binds
B21: hz16G10v10 sdAb-Fc (Fc fusion)
chain: EVQLVESGGGEVQPGGSLRLSCAASGRPFSSSAMGWFRQAPGKERETVAAVSRNAGSSYYADFVKGRFTISRDNAKNTVYLQMSSLRAEDTAVYYCAARSAAYSRSSETYTEKHDYTYWGQGTLVTVKP
notes: as for B20

binding result [4]: binds
B22: hz16G10v7 sdAb-Fc (Fc fusion)
chain: EVQLVESGGGEVQPGGSLRLSCAASGRPFSSSAMGWFRQAPGKERETVAAVSRNTGSSYYAESVKGRFTISRDNAKNTVYLQMSSLRAEDTAVYYCAARSAAYSRSSETYTEKHDYTYWGQGTLVTVKP
notes: as for B20
